Data set [1] deals with the molecule itself. As to the kind of experiment: SEC; size-exclusion chromatography after Ni2+ chelation; Bis-Tris buffer, pH 6.75; YhdE eluted at approximately 81 mL, approximately 45 kDa. (In general: SEC sorts molecules by how far they enter the pores of the column.)
Substrate in data set [2]: Cc1cn([C@H]2C[C@H](O)[C@@H](COP(=O)(O)OP(=O)(O)OP(=O)(O)O)O2)c(=O)[nH]c1=O
As to the kind of experiment: purified protein. Conditions: 2 mM Mn2+, 20 mM HEPES pH 7.0, 25 °C, 1.5 µM enzyme, apparent Km, Hill coefficient 2.2 (positive cooperativity). In kind it is biochemical, Escherichia coli.

Substrate in data set [3]: O=c1ccn([C@@H]2O[C@H](COP(=O)(O)OP(=O)(O)OP(=O)(O)O)[C@@H](O)[C@H]2O)c(=O)[nH]1
As to the kind of experiment: purified protein. Type of data set: biochemical, Escherichia coli. Conditions: 2 mM Mn2+, 20 mM HEPES pH 7.0, 25 °C, 1.5 µM enzyme, apparent Km, Hill coefficient 1.9 (positive cooperativity).

In general, stoichiometry N refers to the number of molecules, sites or subunits per partner or assembly. Broadly, the Km is the substrate concentration at which the rate is half of its maximum. A word on the Vmax: it is the rate approached at saturating substrate. As usually defined, the kcat is the maximal rate divided by the concentration of active sites. As usually defined, the kcat/Km is the turnover number divided by the Michaelis constant.

B1: YhdE, a Maf-like protein in Escherichia coli (nucleotide pyrophosphatase) (enzyme, UniProt P25536 1-197, looked up)
chain: MTSLYLASGSPRRQELLAQLGVTFERIVTGIEEQRQPQESAQQYVVRLAREKARAGVAQTAKDLPVLGADTIVILNGEVLEKPRDAEHAAQMLRKLSGQTHQVMTAVALADSQHILDCLVVTDVTFRTLTDEDIAGYVASDEPLDKAGAYGIQGLGGCFVRKINGSYHAVVGLPLVETYELLSNFNALREKRDKHDG
notes: YhdE, Maf-like protein of Escherichia coli; the open reading frame of yhdE cloned into pFO4 (BamHI/EcoRI); also called recombinant YhdE; source: E. coli BL21(DE3), purified (Ni2+ chelation, size-exclusion chromatography)
For B1, the “stoichiometry N” value in data set [1] is 2.

B2: YhdE (Escherichia coli K-12) (protein)
chain: TSLYLASGSPRRQELLAQLGVTFERIVTGIEEQRQPQESAQQYVVRLAREKARAGVAQTAKDLPVLGADTIVILNGEVLEKPRDAEHAAQMLRKLSGQTHQVMTAVALADSQHILDCLVVTDVTFRTLTDEDIAGYVASDEPLDKAGAYGIQGLGGCFVRKINGSYHAVVGLPLVETYELLSNFNALREKRDKHDG
notes: dimer in solution ~45 kDa, monomer ~22 kDa; PDB entries are of the E33A mutant
With B2, in the data set “purified protein [2]”, the Michaelis-Menten constant (Km) turned out to be 90 µM, the maximum rate (Vmax) was found to be 3600 µM/min, the kcat turned out to be 43 s⁻¹ and the specificity constant (kcat/Km) came out at 503000 M⁻¹ s⁻¹. Also, in “purified protein [3]”, the Km stood at 500 µM, the maximal velocity (Vmax) amounted to 8400 µM/min, the kcat was determined as 95 s⁻¹ and the catalytic efficiency (kcat/Km) worked out at 191000 M⁻¹ s⁻¹.

(Values after PMC4319933, “Insights into the Cellular Function of YhdE, a Nucleotide Pyrophosphatase from Escherichia coli” (PLoS ONE, 2015).)
